IntAct's records for PubMed 36931259

B1: 14-3-3 protein sigma (Homo sapiens), P31947 (parent)
chain: MERASLIQKAKLAEQAERYEDMAAFMKGAVEKGEELSCEERNLLSVAYKNVVGGQRAAWRVLSSIEQKSNEEGSEEKGPEVREYREKVETELQGVCDTVLGLLDSHLIKEAGDAESRVFYLKMKGDYYRYLAEVATGDDKKRIIDSARSAYQEAMDISKKEMPPTNPIRLGLALNFSVFHYEIANSPEEAISLAKTTFDEAMADLHTLSEDSYKDSTLIMQLLRDNLTLWTADNAGEEGGEAPQEPQS

Variants of: B1
Conditions: with pak5_human PAK5, Q9P286

| Variant | effect of a mutation on the interaction |
| --- | --- |
| K49E;R56E;V178D | decreasing interaction strength |

Variants of: B1
Conditions: with cdk16_human CDK16, Q00536
Sequence of cdk16_human CDK16, Q00536 (Q00536 whole entry): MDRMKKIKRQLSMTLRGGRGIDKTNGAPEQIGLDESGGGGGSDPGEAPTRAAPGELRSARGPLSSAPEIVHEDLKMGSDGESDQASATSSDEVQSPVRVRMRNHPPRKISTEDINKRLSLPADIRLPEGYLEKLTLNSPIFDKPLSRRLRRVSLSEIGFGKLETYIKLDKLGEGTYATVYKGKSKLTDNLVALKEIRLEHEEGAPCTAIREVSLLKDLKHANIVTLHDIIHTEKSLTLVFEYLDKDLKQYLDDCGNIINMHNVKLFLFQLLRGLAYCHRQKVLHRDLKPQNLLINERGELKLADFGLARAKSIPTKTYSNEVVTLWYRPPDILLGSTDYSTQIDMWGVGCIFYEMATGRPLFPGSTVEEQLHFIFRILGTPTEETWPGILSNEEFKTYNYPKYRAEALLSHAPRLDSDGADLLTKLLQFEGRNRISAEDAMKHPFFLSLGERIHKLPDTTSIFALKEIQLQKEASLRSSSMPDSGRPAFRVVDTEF

| Variant | effect of a mutation on the interaction |
| --- | --- |
| K49E;R56E;V178D | decreasing interaction strength |

Variants of: B1
Conditions: with sik1_human SIK1, P57059

| Variant | effect of a mutation on the interaction |
| --- | --- |
| K49E;R56E;V178D | decreasing interaction strength |

Variants of: B1
Conditions: with mark3_human MARK3, P27448

| Variant | effect of a mutation on the interaction |
| --- | --- |
| K49E;R56E;V178D | decreasing interaction strength |

Variants of: B1
Conditions: with plk1_human PLK1, P53350

| Variant | effect of a mutation on the interaction |
| --- | --- |
| K49E;R56E;V178D | decreasing interaction strength |

Variants of: B1
Conditions: with cd28_human CD28, P10747

| Variant | effect of a mutation on the interaction |
| --- | --- |
| K49E;R56E;V178D | decreasing interaction strength |

Variants of: B1
Conditions: with srs10_human SRSF10, O75494
Sequence of srs10_human SRSF10, O75494 (O75494 whole entry): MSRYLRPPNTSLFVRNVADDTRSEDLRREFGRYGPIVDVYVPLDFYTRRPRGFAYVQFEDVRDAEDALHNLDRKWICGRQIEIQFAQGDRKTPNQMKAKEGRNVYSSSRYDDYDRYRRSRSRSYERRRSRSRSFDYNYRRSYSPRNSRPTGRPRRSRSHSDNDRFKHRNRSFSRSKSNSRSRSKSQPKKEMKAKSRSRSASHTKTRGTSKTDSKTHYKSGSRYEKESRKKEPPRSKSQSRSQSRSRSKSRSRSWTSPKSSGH

| Variant | effect of a mutation on the interaction |
| --- | --- |
| K49E;R56E;V178D | decreasing interaction strength |

Variants of: B1
Conditions: with pabp1_human PABPC1, P11940

| Variant | effect of a mutation on the interaction |
| --- | --- |
| K49E;R56E;V178D | decreasing interaction strength |

Variants of: B1
Conditions: with foxo3_human FOXO3, O43524
Sequence of foxo3_human FOXO3, O43524 (O43524 whole entry): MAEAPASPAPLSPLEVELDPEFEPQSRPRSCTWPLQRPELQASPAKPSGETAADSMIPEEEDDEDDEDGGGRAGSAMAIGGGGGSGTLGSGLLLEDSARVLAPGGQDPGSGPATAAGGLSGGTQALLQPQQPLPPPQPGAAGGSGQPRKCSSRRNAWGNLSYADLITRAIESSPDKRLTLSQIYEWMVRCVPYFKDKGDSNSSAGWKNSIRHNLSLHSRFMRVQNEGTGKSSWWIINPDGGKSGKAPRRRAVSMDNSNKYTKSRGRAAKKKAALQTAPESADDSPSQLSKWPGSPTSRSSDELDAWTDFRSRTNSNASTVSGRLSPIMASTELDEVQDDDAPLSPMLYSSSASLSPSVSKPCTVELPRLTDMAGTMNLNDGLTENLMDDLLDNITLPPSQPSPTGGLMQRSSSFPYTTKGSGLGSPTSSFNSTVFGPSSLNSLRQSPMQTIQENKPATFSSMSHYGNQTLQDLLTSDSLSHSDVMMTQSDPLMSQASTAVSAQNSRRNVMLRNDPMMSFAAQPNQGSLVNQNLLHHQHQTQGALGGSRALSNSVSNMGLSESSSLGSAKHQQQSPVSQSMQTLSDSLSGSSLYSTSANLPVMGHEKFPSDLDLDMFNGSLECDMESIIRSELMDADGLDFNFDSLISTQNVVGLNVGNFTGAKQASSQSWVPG

| Variant | effect of a mutation on the interaction |
| --- | --- |
| K49E;R56E;V178D | decreasing interaction strength |

Variants of: B1
Conditions: with hdac4_human HDAC4, P56524

| Variant | effect of a mutation on the interaction |
| --- | --- |
| K49E;R56E;V178D | decreasing interaction strength |

Variants of: B1
Conditions: with wdr62_human WDR62, O43379

| Variant | effect of a mutation on the interaction |
| --- | --- |
| K49E;R56E;V178D | decreasing interaction strength |

Variants of: B1
Conditions: with pml_human PML

| Variant | effect of a mutation on the interaction |
| --- | --- |
| K49E;R56E;V178D | decreasing interaction strength |

Variants of: B1
Conditions: with wwp2_human WWP2, O00308

| Variant | effect of a mutation on the interaction |
| --- | --- |
| K49E;R56E;V178D | decreasing interaction strength |

Variants of: B1
Conditions: with trim9_human TRIM9, Q9C026
Sequence of trim9_human TRIM9, Q9C026 (Q9C026 whole entry): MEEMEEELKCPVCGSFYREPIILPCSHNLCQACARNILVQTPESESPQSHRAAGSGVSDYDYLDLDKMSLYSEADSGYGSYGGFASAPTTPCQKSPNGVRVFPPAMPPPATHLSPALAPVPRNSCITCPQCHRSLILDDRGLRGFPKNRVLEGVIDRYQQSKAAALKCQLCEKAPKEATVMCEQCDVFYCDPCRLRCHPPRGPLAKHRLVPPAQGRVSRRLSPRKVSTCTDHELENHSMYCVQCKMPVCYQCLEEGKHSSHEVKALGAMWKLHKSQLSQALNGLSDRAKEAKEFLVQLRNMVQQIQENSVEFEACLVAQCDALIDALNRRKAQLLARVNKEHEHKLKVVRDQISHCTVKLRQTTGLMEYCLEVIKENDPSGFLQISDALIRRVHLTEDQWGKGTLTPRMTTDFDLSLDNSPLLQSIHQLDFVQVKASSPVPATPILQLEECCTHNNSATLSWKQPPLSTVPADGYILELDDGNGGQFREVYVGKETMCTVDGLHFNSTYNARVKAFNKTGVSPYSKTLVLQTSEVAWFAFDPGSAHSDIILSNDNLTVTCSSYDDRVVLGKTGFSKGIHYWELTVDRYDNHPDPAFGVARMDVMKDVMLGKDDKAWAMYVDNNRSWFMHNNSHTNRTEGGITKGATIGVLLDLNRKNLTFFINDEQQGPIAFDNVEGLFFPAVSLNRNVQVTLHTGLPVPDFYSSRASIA

| Variant | effect of a mutation on the interaction |
| --- | --- |
| K49E;R56E;V178D | decreasing interaction strength |

Variants of: B1
Conditions: with kctd8_human KCTD8, Q6ZWB6

| Variant | effect of a mutation on the interaction |
| --- | --- |
| K49E;R56E;V178D | decreasing interaction strength |

Variants of: B1
Conditions: with nedd4_human NEDD4, P46934

| Variant | effect of a mutation on the interaction |
| --- | --- |
| K49E;R56E;V178D | decreasing interaction strength |

Variants of: B1
Conditions: with dtl_human DTL

| Variant | effect of a mutation on the interaction |
| --- | --- |
| K49E;R56E;V178D | decreasing interaction strength |

Variants of: B1
Conditions: with cbl_human CBL

| Variant | effect of a mutation on the interaction |
| --- | --- |
| K49E;R56E;V178D | decreasing interaction strength |

Variants of: B1
Conditions: with kcna7_human KCNA7, Q96RP8

| Variant | effect of a mutation on the interaction |
| --- | --- |
| K49E;R56E;V178D | decreasing interaction strength |

Variants of: B1
Conditions: with shkb1_human SHKBP1, Q8TBC3

| Variant | effect of a mutation on the interaction |
| --- | --- |
| K49E;R56E;V178D | decreasing interaction strength |

Variants of: B1
Conditions: with abtb2_human ABTB2, Q8N961

| Variant | effect of a mutation on the interaction |
| --- | --- |
| K49E;R56E;V178D | decreasing interaction strength |

Variants of: B1
Conditions: with ned4l_human NEDD4L

| Variant | effect of a mutation on the interaction |
| --- | --- |
| K49E;R56E;V178D | decreasing interaction strength |

Variants of: B1
Conditions: with sh3r1_human SH3RF1, Q7Z6J0
Sequence of sh3r1_human SH3RF1, Q7Z6J0 (Q7Z6J0 whole entry): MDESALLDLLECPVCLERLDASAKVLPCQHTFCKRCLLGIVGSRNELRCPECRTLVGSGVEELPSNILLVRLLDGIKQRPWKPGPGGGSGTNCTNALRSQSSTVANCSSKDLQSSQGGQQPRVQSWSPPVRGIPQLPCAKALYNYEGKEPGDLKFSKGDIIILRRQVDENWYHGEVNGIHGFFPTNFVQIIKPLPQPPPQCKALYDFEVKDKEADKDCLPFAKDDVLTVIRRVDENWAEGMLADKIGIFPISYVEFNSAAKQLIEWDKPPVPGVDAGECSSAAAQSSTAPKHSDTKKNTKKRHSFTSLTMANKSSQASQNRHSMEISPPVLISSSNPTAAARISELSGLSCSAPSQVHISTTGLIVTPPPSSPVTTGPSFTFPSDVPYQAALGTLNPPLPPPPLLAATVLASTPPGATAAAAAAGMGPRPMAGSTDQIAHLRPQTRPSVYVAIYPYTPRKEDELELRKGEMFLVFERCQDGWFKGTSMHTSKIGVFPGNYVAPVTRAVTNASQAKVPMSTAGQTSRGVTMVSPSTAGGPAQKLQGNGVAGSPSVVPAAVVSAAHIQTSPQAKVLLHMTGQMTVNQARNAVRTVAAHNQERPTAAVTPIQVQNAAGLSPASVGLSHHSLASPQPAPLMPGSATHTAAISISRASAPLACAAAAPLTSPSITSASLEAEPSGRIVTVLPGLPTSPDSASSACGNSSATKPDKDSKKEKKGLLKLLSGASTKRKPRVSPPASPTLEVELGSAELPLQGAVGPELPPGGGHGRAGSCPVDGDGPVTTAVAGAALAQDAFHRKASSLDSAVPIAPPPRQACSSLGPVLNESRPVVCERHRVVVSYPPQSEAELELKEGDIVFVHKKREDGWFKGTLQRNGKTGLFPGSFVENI

| Variant | effect of a mutation on the interaction |
| --- | --- |
| K49E;R56E;V178D | decreasing interaction strength |

Variants of: B1
Conditions: with braf_human BRAF

| Variant | effect of a mutation on the interaction |
| --- | --- |
| K49E;R56E;V178D | decreasing interaction strength |

Variants of: B1
Conditions: with FAM110B

| Variant | effect of a mutation on the interaction |
| --- | --- |
| K49E;R56E;V178D | decreasing interaction strength |

Variants of: B1
Conditions: with iscu_human ISCU

| Variant | effect of a mutation on the interaction |
| --- | --- |
| K49E;R56E;V178D | decreasing interaction strength |

Variants of: B1
Conditions: with foxo4_human FOXO4, P98177
Sequence of foxo4_human FOXO4, P98177 (P98177 whole entry): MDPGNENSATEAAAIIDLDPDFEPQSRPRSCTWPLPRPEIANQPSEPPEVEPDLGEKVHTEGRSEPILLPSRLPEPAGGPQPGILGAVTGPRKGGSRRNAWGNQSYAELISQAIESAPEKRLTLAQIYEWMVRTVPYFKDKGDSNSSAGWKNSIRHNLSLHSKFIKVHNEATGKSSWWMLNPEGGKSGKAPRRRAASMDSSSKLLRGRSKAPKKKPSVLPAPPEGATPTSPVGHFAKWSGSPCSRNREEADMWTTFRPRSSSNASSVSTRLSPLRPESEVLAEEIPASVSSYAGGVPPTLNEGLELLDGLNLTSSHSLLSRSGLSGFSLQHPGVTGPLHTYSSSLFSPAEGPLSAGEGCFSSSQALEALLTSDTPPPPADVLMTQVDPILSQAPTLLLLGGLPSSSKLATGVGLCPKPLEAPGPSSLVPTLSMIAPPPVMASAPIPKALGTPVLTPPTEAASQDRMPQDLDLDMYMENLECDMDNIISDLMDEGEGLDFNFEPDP

| Variant | effect of a mutation on the interaction |
| --- | --- |
| K49E;R56E;V178D | decreasing interaction strength |

Variants of: B1
Conditions: with klc4_human KLC4, Q9NSK0

| Variant | effect of a mutation on the interaction |
| --- | --- |
| K49E;R56E;V178D | decreasing interaction strength |

Variants of: B1
Conditions: with larp1_human LARP1, Q6PKG0

| Variant | effect of a mutation on the interaction |
| --- | --- |
| K49E;R56E;V178D | decreasing interaction strength |

Variants of: B1
Conditions: with klc3_human KLC3, Q6P597

| Variant | effect of a mutation on the interaction |
| --- | --- |
| K49E;R56E;V178D | decreasing interaction strength |

Variants of: B1
Conditions: with dnjb1_human DNAJB1, P25685

| Variant | effect of a mutation on the interaction |
| --- | --- |
| K49E;R56E;V178D | decreasing interaction strength |

Variants of: B1
Conditions: with wee1_human WEE1, P30291

| Variant | effect of a mutation on the interaction |
| --- | --- |
| K49E;R56E;V178D | decreasing interaction strength |

Variants of: B1
Conditions: with grip1_human GRIP1, Q9Y3R0

| Variant | effect of a mutation on the interaction |
| --- | --- |
| K49E;R56E;V178D | decreasing interaction strength |

Variants of: B1
Conditions: with KIAA0930, Q6ICG6

| Variant | effect of a mutation on the interaction |
| --- | --- |
| K49E;R56E;V178D | decreasing interaction strength |

Variants of: B1
Conditions: with ablm1_human ABLIM1, O14639
Sequence of ablm1_human ABLIM1, O14639 (O14639 whole entry): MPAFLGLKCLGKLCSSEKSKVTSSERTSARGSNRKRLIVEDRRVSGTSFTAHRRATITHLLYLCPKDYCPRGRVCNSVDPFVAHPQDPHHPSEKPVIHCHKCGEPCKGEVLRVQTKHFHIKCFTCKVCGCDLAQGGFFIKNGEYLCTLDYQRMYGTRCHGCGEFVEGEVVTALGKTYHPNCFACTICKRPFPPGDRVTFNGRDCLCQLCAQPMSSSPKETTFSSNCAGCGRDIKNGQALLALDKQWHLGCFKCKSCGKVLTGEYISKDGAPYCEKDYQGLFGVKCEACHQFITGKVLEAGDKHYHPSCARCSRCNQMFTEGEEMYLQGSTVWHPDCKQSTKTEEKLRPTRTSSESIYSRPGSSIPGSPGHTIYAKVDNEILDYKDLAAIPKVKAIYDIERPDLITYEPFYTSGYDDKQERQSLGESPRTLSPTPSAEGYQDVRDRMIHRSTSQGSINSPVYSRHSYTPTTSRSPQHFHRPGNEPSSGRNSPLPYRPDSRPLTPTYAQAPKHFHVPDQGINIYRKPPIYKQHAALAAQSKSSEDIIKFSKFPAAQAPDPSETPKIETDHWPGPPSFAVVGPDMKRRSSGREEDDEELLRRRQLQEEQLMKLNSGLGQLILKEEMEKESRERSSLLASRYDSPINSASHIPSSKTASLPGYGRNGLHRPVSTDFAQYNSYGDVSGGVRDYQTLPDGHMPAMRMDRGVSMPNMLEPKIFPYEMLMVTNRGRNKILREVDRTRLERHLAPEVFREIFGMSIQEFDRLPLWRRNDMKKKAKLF

| Variant | effect of a mutation on the interaction |
| --- | --- |
| K49E;R56E;V178D | decreasing interaction strength |

Variants of: B1
Conditions: with baip2_human BAIAP2, Q9UQB8

| Variant | effect of a mutation on the interaction |
| --- | --- |
| K49E;R56E;V178D | decreasing interaction strength |

Variants of: B1
Conditions: with nav1_human NAV1, Q8NEY1

| Variant | effect of a mutation on the interaction |
| --- | --- |
| K49E;R56E;V178D | decreasing interaction strength |

Variants of: B1
Conditions: with pcm1_human PCM1, Q15154

| Variant | effect of a mutation on the interaction |
| --- | --- |
| K49E;R56E;V178D | decreasing interaction strength |

Variants of: B1
Conditions: with EPB41L2, O43491

| Variant | effect of a mutation on the interaction |
| --- | --- |
| K49E;R56E;V178D | decreasing interaction strength |

Variants of: B1
Conditions: with kif1b_human KIF1B

| Variant | effect of a mutation on the interaction |
| --- | --- |
| K49E;R56E;V178D | decreasing interaction strength |

Variants of: B1
Conditions: with clap1_human CLASP1, Q7Z460

| Variant | effect of a mutation on the interaction |
| --- | --- |
| K49E;R56E;V178D | decreasing interaction strength |

Variants of: B1
Conditions: with pum1_human PUM1, Q14671

| Variant | effect of a mutation on the interaction |
| --- | --- |
| K49E;R56E;V178D | decreasing interaction strength |

Variants of: B1
Conditions: with klc2_human KLC2, Q9H0B6

| Variant | effect of a mutation on the interaction |
| --- | --- |
| K49E;R56E;V178D | decreasing interaction strength |

Variants of: B1
Conditions: with foxo1_human FOXO1, Q12778

| Variant | effect of a mutation on the interaction |
| --- | --- |
| K49E;R56E;V178D | decreasing interaction strength |

Variants of: B1
Conditions: with irs1_human IRS1, P35568

| Variant | effect of a mutation on the interaction |
| --- | --- |
| K49E;R56E;V178D | decreasing interaction strength |

Variants of: B1
Conditions: with atat_human ATAT1, Q5SQI0
Sequence of atat_human ATAT1, Q5SQI0 (Q5SQI0 whole entry): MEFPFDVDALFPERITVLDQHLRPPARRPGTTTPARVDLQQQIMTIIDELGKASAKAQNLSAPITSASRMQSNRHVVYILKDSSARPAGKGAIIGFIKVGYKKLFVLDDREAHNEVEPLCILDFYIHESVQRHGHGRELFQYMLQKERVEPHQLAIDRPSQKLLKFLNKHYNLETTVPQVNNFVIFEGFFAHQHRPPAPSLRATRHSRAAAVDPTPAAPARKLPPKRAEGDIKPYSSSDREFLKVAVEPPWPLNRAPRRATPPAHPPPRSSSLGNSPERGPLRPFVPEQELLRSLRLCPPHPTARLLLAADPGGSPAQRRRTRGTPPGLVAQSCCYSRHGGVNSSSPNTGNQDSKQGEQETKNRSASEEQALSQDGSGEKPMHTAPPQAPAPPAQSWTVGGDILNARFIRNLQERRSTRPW

| Variant | effect of a mutation on the interaction |
| --- | --- |
| K49E;R56E;V178D | decreasing interaction strength |

Variants of: B1
Conditions: with 1433e_human YWHAE

| Variant | effect of a mutation on the interaction |
| --- | --- |
| K49E;R56E;V178D | decreasing interaction strength |
